For orientation: Kd means a measure of binding affinity in units of concentration.

Residues, ends and D or L forms follow the SMILES beside them. *: point of attachment. Biotin = O=C1N[C@H]2[C@H](CS[C@H]2CCCCC(=O)*)N1

For one test, the target named is T1, PfELC (Plasmodium falciparum, UniProt Q8IJM4).
T1 construct: His tag (N); made in house; host or cells: E. coli BL21 (DE3)
The experiment in a line: biolayer interferometry binding of PfELC to immobilized MyoA neck peptides. Set-up: species or system P. falciparum. The note with it: 25 °C, pH 8.0, PfELC 0.04–5 μM. Here is the method: Overlapping peptides representing amino acids Gln^770–Ala^787, Ala^786–Ser^803, and Ile^801–Gln^818 of the PfMyoA neck were synthesized by Mimotopes with biotin at the N terminus. […] The C termini of the peptides were capped with an amide to remove unnatural charge, apart from peptide 801–818, which was left as a free acid.
P. falciparum ELC binding to peptides was analyzed by biolayer interferometry using the Octet Red system (ForteBio) at 25 °C in 96-well microplates, as described previously ([63]). All assays were performed in 100 mM Tris-HCl, pH 8.0, containing 0.005% (v/v) Tween 20, according to the manufacturer's instructions. A baseline was established over 4 min, and biotinylated peptides (0.4 μg/ml) were loaded onto streptavidin sensors for 10 min. The sensors were washed for 4 min and then incubated with PfELC at different concentrations (0.04–5 μM) for 800 s. The data were analyzed to calculate a dissociation constant (Kd) using non-linear regression with a one-site binding model and a least-squares fit (GraphPad Prism version 6).

Test [1] addresses T2, Recombinant His-tagged PfELC (E. coli) (P. falciparum, UniProt Q8IJM4 1-134).
T2 construct: also called His-PfELC; His-ELC; source: E. coli BL21 (DE3), purified (nickel-nitrilotriacetic acid-agarose)
T2 sequence: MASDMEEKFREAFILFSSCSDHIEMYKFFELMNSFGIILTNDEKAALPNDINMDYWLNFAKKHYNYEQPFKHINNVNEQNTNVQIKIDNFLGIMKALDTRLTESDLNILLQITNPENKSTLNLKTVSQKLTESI
The experiment in a line: BLI. The note with it: both partners purified.

Another test deals with actin. As to the kind of experiment: optical tweezer-based single-molecule acto-MyoA interaction. The test is classed as biochemical. Here is the method:
MyoA was expressed in a wheat germ cell-free protein synthesis system (ENDEXT® Technology, CellFree Sciences) ([64]). Recombinant plasmid DNA using recodonized template DNA was amplified using specific primers and cloned into the vector pEU-E01G-TEV-N1 to express N-terminal GST-tagged protein. For the in vitro transcription reaction, 2 μg of DNA was added to a transcription premix (11.5 μl of nuclease-free water, 1× transcription buffer, 2.5 mM NTP mix, 1 unit/μl RNase inhibitor, 1 unit/μl SP6 RNA polymerase) in a total volume of 20 μl and incubated at 37 °C for 6 h, according to the manufacturer's instructions. The quality of mRNA produced was monitored by gel electrophoresis. The bilayer reaction system (CellFree Sciences) was used to translate mRNA into protein. mRNA (10 μl) was added to 10 μl of wheat germ extract (WEPRO® 1240) supplemented with 40 ng/μl creatine kinase and carefully transferred directly below the SUB-AMIX solution (0.3 mM of each L-amino acid, 100 mM potassium acetate, 2.7 mM magnesium acetate, 16 mM disodium creatine phosphate, 0.4 mM spermidine, 1.2 mM ATP, 0.25 mM GTP, 4 mM dithiothreitol, and 30 mM HEPES-KOH (pH 7.8)) and incubated for 20 h at 15–16 °C. Soluble GST-tagged MyoA was purified using glutathione-Sepharose beads (GE Healthcare); supernatant was incubated with the resin for 2 h at 4 °C, followed by extensive washing with 20 mM Tris-HCl, pH 8.0, 250 mM NaCl, 0.5 mM TCEP. The beads were resuspended in 3 volumes of 20 mM Tris-HCl, pH 8.0, 100 mM NaCl, 10 mM reduced glutathione to elute the GST-tagged protein. This was followed by buffer exchange into PBS on a PD10 column (GE Healthcare).
The optical tweezer assay, developed to measure the force and movement produced by individual myosin molecules interacting with an actin filament, was used in the well-established three-bead format with the experimental conditions as described ([65][–][67]). The experimental apparatus is based around a Zeiss inverted microscope, and experiments were performed in a flow-cell chamber created using a microscope slide and coverslip. […] Interactions between the surface-bound MyoA and the actin filament were recorded by monitoring movement of the beads held in the optical tweezers using two 4-quadrant, photodiode detectors. […] Individual events were then automatically detected by measuring changes in amplitude of the imposed triangular oscillation, and event amplitudes were histogrammed. Data were acquired and saved to computer memory using custom software, with a sampling rate of 10 kHz, and later analyzed using IgorPro software (WaveMetrics Inc., Lake Oswego, OR). Individual acto-MyoA force-producing events were identified as described previously ([65]), and the MyoA power-stroke amplitude and kinetics were analyzed by histogram analysis of the data.

As to `CC[C@H](C)[C@H](NC(=O)[C@H](C)NC(=O)[C@H](C)NC(=O)CNC(=O)[C@H](CO)NC(=O)CNC(=O)[C@H](CO)NC(=O)CCCC[C@@H]1SC[C@@H]2NC(=O)N[C@@H]21)C(=O)N[C@@H](CC(C)C)C(=O)N[C@@H](CCCCN)C(=O)N[C@@H](Cc1c[nH]cn1)C(=O)N[C@@H](CCCCN)C(=O)N[C@@H](Cc1ccc(O)cc1)C(=O)N[C@@H](CCCCN)C(=O)N[C@@H](CCC(N)=O)C(=O)N[C@@H](CCCCN)C(=O)N[C@H](C(=O)N[C@@H](CC(N)=O)C(=O)N[C@@H](CCCCN)C(=O)N[C@@H](CC(N)=O)C(=O)N[C@H](C(=O)N1CCC[C@H]1C(=O)N[C@@H](CO)C(N)=O)[C@@H](C)CC)C(C)C` [786–803] (Biotin-SGSGAAILKHKYKQKVNKNIPS-NH2), the “binding to PfELC (in words)” value on PfELC is “binds strongly to PfELC”.

For “peptide 770–787: biotinylated PfMyoA neck peptide Gln770–Ala787 with SGSG linker, C-terminal amide (Biotin-SGSGQREKLVEWENCVSVIEAA-NH2; SMILES CC[C@H](C)[C@H](NC(=O)[C@@H](NC(=O)[C@H](CO)NC(=O)[C@@H](NC(=O)[C@H](CS)NC(=O)[C@H](CC(N)=O)NC(=O)[C@H](CCC(=O)O)NC(=O)[C@H](Cc1c[nH]c2ccccc12)NC(=O)[C@H](CCC(=O)O)NC(=O)[C@@H](NC(=O)[C@H](CC(C)C)NC(=O)[C@H](CCCCN)NC(=O)[C@H](CCC(=O)O)NC(=O)[C@H](CCCNC(=N)N)NC(=O)[C@H](CCC(N)=O)NC(=O)CNC(=O)[C@H](CO)NC(=O)CNC(=O)[C@H](CO)NC(=O)CCCC[C@@H]1SC[C@@H]2NC(=O)N[C@@H]21)C(C)C)C(C)C)C(C)C)C(=O)N[C@@H](CCC(=O)O)C(=O)N[C@@H](C)C(=O)N[C@@H](C)C(N)=O; UniProt Q8IDR3 770-787, looked up, fragment)”, the “binding to PfELC (in words)” value in the test with PfELC is reported as “no observable binding”; in the test with PfELC (listed as MyoA 770–787), “no binding”.

B1: Biotinylated PfMyoA neck peptide 786–803 (peptide)
peptide: Biotin-SGSGAAILKHKYKQKVNKNIPS-NH2
SMILES: CC[C@H](C)[C@H](NC(=O)[C@H](C)NC(=O)[C@H](C)NC(=O)CNC(=O)[C@H](CO)NC(=O)CNC(=O)[C@H](CO)NC(=O)CCCC[C@@H]1SC[C@@H]2NC(=O)N[C@@H]21)C(=O)N[C@@H](CC(C)C)C(=O)N[C@@H](CCCCN)C(=O)N[C@@H](Cc1c[nH]cn1)C(=O)N[C@@H](CCCCN)C(=O)N[C@@H](Cc1ccc(O)cc1)C(=O)N[C@@H](CCCCN)C(=O)N[C@@H](CCC(N)=O)C(=O)N[C@@H](CCCCN)C(=O)N[C@H](C(=O)N[C@@H](CC(N)=O)C(=O)N[C@@H](CCCCN)C(=O)N[C@@H](CC(N)=O)C(=O)N[C@H](C(=O)N1CCC[C@H]1C(=O)N[C@@H](CO)C(N)=O)[C@@H](C)CC)C(C)C
notes: source: synthetic peptide (Mimotopes)
B1: in test [1], the Kd came to 480 nM.

B2: Myosin A (protein)
chain: MAVTNEEIKTASKIVRRVSNVEAFDKSGSVFKGYQIWTDISPTIENDPNIMFVKCVVQQGSKKEKLTVVQIDPPGTGTPYDIDPTHAWNCNSQVDPMSFGDIGLLNHTNIPCVLDFLKHRYLKNQIYTTAVPLIVAINPYKDLGNTTNEWIRRYRDTADHTKLPPHVFTCAREALSNLHGVNKSQTIIVSGESGAGKTEATKQIMRYFASSKSGNMDLRIQTAIMAANPVLEAFGNAKTIRNNNSSRFGRFMQLVISHEGGIRYGSVVAFLLEKSRIITQDDNERSYHIFYQFLKGANSTMKSKFGLKGVTEYKLLNPNSTEVSGVDDVKDFEEVIESLKNMELSESDIEVIFSIVAGILTLGNVRLIEKQEAGLSDAAAIMDEDMGVFNKACELMYLDPELIKREILIKVTVAGGTKIEGRWNKNDAEVLKSSLCKAMYEKLFLWIIRHLNSRIEPEGGFKTFMGMLDIFGFEVFKNNSLEQLFINITNEMLQKNFVDIVFERESKLYKDEGISTAELKYTSNKEVINVLCEKGKSVLSYLEDQCLAPGGTDEKFVSSCATNLKENNKFTPAKVASNKNFIIQHTIGPIQYCAESFLLKNKDVLRGDLVEVIKDSPNPIVQQLFEGQVIEKGKIAKGSLIGSQFLNQLTSLMNLINSTEPHFIRCIKPNENKKPLEWCEPKILIQLHALSILEALVLRQLGYSYRRTFEEFLYQYKFVDIAAAEDSSVENQNKCVNILKLSGLSESMYKIGKSMVFLKQEGAKILTKIQREKLVEWENCVSVIEAAILKHKYKQKVNKNIPSLLRVQAHIRKKMVAQ
modifications: left off: GST, N-terminal, kept
notes: GST-tagged PfMyoA expressed in wheat germ cell-free system
With B2, the “rate constant of event lifetimes (single-exponential least-square fit)” value is 6.9 s⁻¹ in the test with actin (0.3 μM Mg·ATP) and 53 s⁻¹ in the test on actin (8 μM Mg·ATP). In addition, the “second-order rate constant for Mg·ATP binding and dissociating the acto-MyoA rigor complex” value in the test with actin (from event lifetimes at 0.3 and 8 μM ATP) is about 1.5e+07 M⁻¹ s⁻¹. The “working stroke (power stroke)” value with actin (shift in mean position of event distribution, 244 acto-MyoA binding events, 2 μM ATP) worked out at 3 nm.

B3: Biotinylated PfMyoA neck peptide 801–818 (peptide)
peptide: Biotin-SGSGIPSLLRVQAHIRKKMVAQ-OH
SMILES: CC[C@H](C)[C@H](NC(=O)[C@H](Cc1c[nH]cn1)NC(=O)[C@H](C)NC(=O)[C@H](CCC(N)=O)NC(=O)[C@@H](NC(=O)[C@H](CCCNC(=N)N)NC(=O)[C@H](CC(C)C)NC(=O)[C@H](CC(C)C)NC(=O)[C@H](CO)NC(=O)[C@@H]1CCCN1C(=O)[C@@H](NC(=O)CNC(=O)[C@H](CO)NC(=O)CNC(=O)[C@H](CO)NC(=O)CCCC[C@@H]1SC[C@@H]2NC(=O)N[C@@H]21)[C@@H](C)CC)C(C)C)C(=O)N[C@@H](CCCNC(=N)N)C(=O)N[C@@H](CCCCN)C(=O)N[C@@H](CCCCN)C(=O)N[C@@H](CCSC)C(=O)N[C@H](C(=O)N[C@@H](C)C(=O)N[C@@H](CCC(N)=O)C(=O)O)C(C)C
notes: as for B1
Consider B3, for which the Kd in test [1] turned out to be 320 nM.

These data come from PMC5663884, “Compositional and expression analyses of the glideosome during the Plasmodium life cycle reveal an additional myosin light chain required for maximum motility” (The Journal of Biological Chemistry, 2017).
